Measured values from article PMC12203944.
One block for each molecule: values may come before it.

Tests used:
[1] = target: c-Myc^1-88 labelled with A488 on C70, phosphorylated on T58 and S62 (UniProt P01106); test: fluorescence polarisation; steady-state fluorescence anisotropy of the A488 dye on c-Myc in the donor-only samples with unlabeled AurA, same plates as for the lifetime measurements; excitation 470 nm, emission 516 nm; fit to a 1:1 binding model
[2] = target: c-Myc^1-331 labelled at the four N-terminal sites in the MB0–MBII region (fluorescence anisotropy); test: as above
[3] = target: c-Myc^1-331 single-cysteine construct C70, labelled with Alexa 488, phosphorylated on T58 and S62; test: FRET or BRET; time-resolved fluorescence lifetime plate reader; Alexa 488-labelled c-Myc constant at 50 nM, DABCYL-labelled AurA titrated 0-12.8 uM; 384-well plates, room temperature, at least 30 min
[4] = target: c-Myc^1-331 labelled at the four N-terminal sites in the MB0–MBII region (FRET); test: as above

fold enhancement of binding affinity over unphosphorylated c-Myc 1-88 [1]: 3 fold
Kd [2]: 2000 to 3000 nM
Molecule: Aurora A kinase domain (AurA^122-403), unlabeled (from UniProt O14965 122-403) (domain or fragment)

fold enhancement of binding affinity over unphosphorylated c-Myc 1-331 [3]: 2 fold
Kd [4]: 2000 to 3000 nM
B1: Aurora A kinase domain (AurA^122-403), cysteine-lite, labelled with dabcyl acceptor (domain or fragment)
chain: ESKKRQWALEDFEIGRPLGKGKFGNVYLAREKQSKFILALKVLFKAQLEKAGVEHQLRREVEIQSHLRHPNILRLYGYFHDATRVYLILEYAPLGTVYRELQKCSKFDEQRTATYITELANALSYCHSKRVIHRDIKPENLLLGSAGELKIADFGWSVHAPSSRRTTLSGTLDYLPPEMIEGRMHDEKVDLWSLGVLCYEFLVGKPPFEANTYQETYKRISRVEFTFPDFVTEGARDLISRLLKHNPSQRPMLREVLEHPWITANSSKPSNSQNKESASKQS
modifications: DABCYL-Plus C2 maleimide on the cysteine introduced by L225C
